Results as given in article PMC2992793 (Structure (London, England : 1993), 2010).
Values belong to the binder of their own block, whether it stands above or below them.

Assays:
[1] = biological target: T1, His-tagged μ2C (μ2 170–435), wild type (rat, UniProt P84092 170-435); experiment: pull-down
T1 sequence (looked up): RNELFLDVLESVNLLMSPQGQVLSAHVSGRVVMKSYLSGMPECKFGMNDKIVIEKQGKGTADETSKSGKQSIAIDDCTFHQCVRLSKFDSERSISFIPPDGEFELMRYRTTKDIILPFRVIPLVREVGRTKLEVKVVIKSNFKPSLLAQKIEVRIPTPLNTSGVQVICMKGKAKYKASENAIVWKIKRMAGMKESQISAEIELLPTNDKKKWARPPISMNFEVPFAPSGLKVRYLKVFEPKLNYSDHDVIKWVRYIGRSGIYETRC

[2] = biological target: T2, GST-μ2C wild type (μ2 170–435) (rat, UniProt P84092 170-435); experiment: pull-down
T2 sequence (looked up): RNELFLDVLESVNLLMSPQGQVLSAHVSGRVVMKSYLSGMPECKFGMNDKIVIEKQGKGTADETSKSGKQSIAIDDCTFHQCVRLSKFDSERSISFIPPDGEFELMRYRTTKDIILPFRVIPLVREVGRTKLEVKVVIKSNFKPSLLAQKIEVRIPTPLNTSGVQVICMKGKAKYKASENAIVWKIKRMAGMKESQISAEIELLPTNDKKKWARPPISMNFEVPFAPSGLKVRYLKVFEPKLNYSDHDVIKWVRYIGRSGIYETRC

GST-μ2C K213A = biological target: T3, GST-μ2C K213A (rat, UniProt P84092 170-435, Lys213 to alanine); experiment: pull-down
T3 sequence (looked up): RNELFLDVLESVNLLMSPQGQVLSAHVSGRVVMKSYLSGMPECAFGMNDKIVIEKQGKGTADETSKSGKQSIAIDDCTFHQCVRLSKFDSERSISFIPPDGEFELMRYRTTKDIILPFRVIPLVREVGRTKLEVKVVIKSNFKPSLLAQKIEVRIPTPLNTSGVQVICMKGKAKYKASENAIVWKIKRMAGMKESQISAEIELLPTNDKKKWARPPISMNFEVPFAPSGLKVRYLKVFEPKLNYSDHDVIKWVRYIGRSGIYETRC

GST-μ2C K405A = biological target: T4, GST-μ2C K405A (rat, UniProt P84092 170-435, Lys405 to alanine); experiment: pull-down
T4 sequence (looked up): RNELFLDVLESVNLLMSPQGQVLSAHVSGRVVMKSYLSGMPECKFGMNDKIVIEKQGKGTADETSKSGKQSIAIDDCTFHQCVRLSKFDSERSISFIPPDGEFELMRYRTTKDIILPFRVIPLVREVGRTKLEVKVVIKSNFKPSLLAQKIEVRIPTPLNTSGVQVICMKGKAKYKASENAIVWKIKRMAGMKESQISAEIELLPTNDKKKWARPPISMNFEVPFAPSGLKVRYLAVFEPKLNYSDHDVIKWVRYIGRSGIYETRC

GST-μ2C F407A = biological target: T5, GST-μ2C F407A (rat, UniProt P84092 170-435, Phe407 to alanine); experiment: pull-down
T5 sequence (looked up): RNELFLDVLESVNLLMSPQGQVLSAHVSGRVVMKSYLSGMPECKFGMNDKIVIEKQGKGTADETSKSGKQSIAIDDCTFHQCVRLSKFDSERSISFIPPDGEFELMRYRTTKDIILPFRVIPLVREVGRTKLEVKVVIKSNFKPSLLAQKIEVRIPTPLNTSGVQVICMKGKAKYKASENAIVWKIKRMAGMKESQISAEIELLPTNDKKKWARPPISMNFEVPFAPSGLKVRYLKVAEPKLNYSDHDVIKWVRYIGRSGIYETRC

GST-μ2C E211A = biological target: T6, GST-μ2C E211A (rat, UniProt P84092 170-435, Glu211 to alanine); experiment: pull-down
T6 sequence (looked up): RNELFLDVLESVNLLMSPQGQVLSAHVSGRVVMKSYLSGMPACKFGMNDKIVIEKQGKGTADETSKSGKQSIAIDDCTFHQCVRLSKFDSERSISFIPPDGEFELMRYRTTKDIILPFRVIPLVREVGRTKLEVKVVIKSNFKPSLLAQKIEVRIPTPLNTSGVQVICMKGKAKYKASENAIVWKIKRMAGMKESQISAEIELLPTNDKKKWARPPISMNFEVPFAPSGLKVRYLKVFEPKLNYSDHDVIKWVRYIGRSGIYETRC

[3] = biological target: T7, Dvl2 Lys446Ala (construct not stated) (murine, UniProt Q60838 1-736, Lys446Ala)
T7 sequence (looked up): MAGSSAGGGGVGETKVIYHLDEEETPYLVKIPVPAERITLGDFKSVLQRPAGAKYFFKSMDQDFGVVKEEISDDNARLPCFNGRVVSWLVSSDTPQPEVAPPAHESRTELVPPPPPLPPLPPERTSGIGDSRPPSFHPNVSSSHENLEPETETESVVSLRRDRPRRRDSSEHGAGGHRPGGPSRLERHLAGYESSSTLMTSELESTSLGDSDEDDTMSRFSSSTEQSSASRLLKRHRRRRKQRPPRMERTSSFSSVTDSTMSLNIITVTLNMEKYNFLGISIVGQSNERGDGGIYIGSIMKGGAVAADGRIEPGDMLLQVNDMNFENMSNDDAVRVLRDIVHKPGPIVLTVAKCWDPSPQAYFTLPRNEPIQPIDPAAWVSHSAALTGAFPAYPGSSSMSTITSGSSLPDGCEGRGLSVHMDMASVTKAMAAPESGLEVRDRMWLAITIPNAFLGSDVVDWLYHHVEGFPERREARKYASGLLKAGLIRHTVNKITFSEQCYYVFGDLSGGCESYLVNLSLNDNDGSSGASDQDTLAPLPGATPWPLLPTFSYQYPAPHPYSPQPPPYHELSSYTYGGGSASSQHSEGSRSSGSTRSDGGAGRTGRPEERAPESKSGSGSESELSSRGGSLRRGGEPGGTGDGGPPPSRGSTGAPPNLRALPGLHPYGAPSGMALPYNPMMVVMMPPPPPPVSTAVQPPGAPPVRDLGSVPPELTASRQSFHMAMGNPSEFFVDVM

[4] = biological target: T8, Dvl2 Lys446Met (construct not stated) (murine, UniProt Q60838 1-736, Lys446Met)
T8 sequence (looked up): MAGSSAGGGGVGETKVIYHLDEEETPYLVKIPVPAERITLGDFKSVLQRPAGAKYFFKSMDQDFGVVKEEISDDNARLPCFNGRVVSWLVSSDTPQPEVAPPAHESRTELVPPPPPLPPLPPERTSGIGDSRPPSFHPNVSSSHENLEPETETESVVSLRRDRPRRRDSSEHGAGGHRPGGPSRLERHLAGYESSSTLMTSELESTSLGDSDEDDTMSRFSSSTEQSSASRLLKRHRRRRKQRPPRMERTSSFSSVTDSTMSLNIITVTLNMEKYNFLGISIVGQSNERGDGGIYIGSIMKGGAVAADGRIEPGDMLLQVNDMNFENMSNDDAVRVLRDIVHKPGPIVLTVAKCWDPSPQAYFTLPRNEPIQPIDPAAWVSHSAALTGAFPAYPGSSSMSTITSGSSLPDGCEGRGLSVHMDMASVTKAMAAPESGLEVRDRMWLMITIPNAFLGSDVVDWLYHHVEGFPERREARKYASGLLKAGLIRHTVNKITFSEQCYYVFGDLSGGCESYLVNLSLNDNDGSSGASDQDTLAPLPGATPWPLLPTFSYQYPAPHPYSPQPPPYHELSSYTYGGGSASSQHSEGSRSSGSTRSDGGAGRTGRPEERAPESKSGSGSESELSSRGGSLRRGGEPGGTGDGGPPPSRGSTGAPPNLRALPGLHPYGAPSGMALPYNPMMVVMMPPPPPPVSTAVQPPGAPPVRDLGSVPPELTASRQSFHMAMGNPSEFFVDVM

binding result [1]: binds
B1: GST-Dvl2 417–588, wild type (domain or fragment, murine, UniProt Q60838 417-588, looked up)
chain: LSVHMDMASVTKAMAAPESGLEVRDRMWLKITIPNAFLGSDVVDWLYHHVEGFPERREARKYASGLLKAGLIRHTVNKITFSEQCYYVFGDLSGGCESYLVNLSLNDNDGSSGASDQDTLAPLPGATPWPLLPTFSYQYPAPHPYSPQPPPYHELSSYTYGGGSASSQHSEG

binding result [1]: binds
B2: GST-Dvl2 417–588 D441K (domain or fragment, murine, UniProt Q60838 417-588, looked up)
chain: LSVHMDMASVTKAMAAPESGLEVRKRMWLKITIPNAFLGSDVVDWLYHHVEGFPERREARKYASGLLKAGLIRHTVNKITFSEQCYYVFGDLSGGCESYLVNLSLNDNDGSSGASDQDTLAPLPGATPWPLLPTFSYQYPAPHPYSPQPPPYHELSSYTYGGGSASSQHSEG

binding result [1]: binds
B3: GST-Dvl2 417–588 N451A (domain or fragment, murine, UniProt Q60838 417-588, looked up)
chain: LSVHMDMASVTKAMAAPESGLEVRDRMWLKITIPAAFLGSDVVDWLYHHVEGFPERREARKYASGLLKAGLIRHTVNKITFSEQCYYVFGDLSGGCESYLVNLSLNDNDGSSGASDQDTLAPLPGATPWPLLPTFSYQYPAPHPYSPQPPPYHELSSYTYGGGSASSQHSEG

binding result [1]: binds
B4: GST-Dvl2 417–588 R489A (domain or fragment, murine, UniProt Q60838 417-588, looked up)
chain: LSVHMDMASVTKAMAAPESGLEVRDRMWLKITIPNAFLGSDVVDWLYHHVEGFPERREARKYASGLLKAGLIAHTVNKITFSEQCYYVFGDLSGGCESYLVNLSLNDNDGSSGASDQDTLAPLPGATPWPLLPTFSYQYPAPHPYSPQPPPYHELSSYTYGGGSASSQHSEG

binding result [2]: binds
binding result (GST-μ2C K213A): binds
binding result (GST-μ2C K405A): binds
binding result (GST-μ2C F407A): binds
binding result (GST-μ2C E211A): binds
B5: His-tagged Dvl2 407–588 (domain or fragment, murine, UniProt Q60838 407-588, looked up)
chain: SLPDGCEGRGLSVHMDMASVTKAMAAPESGLEVRDRMWLKITIPNAFLGSDVVDWLYHHVEGFPERREARKYASGLLKAGLIRHTVNKITFSEQCYYVFGDLSGGCESYLVNLSLNDNDGSSGASDQDTLAPLPGATPWPLLPTFSYQYPAPHPYSPQPPPYHELSSYTYGGGSASSQHSEG

fold decrease of μ2 affinity against wild-type Dvl2 [3]: ~2 fold
fold decrease of μ2 affinity against wild-type Dvl2 [4]: ~2 fold
B6: μ2 (construct of the experiments not shown is not stated) (natural protein, rat, UniProt P84092 1-435, looked up)
chain: MIGGLFIYNHKGEVLISRVYRDDIGRNAVDAFRVNVIHARQQVRSPVTNIARTSFFHVKRSNIWLAAVTKQNVNAAMVFEFLYKMCDVMAAYFGKISEENIKNNFVLIYELLDEILDFGYPQNSETGALKTFITQQGIKSQHQTKEEQSQITSQVTGQIGWRREGIKYRRNELFLDVLESVNLLMSPQGQVLSAHVSGRVVMKSYLSGMPECKFGMNDKIVIEKQGKGTADETSKSGKQSIAIDDCTFHQCVRLSKFDSERSISFIPPDGEFELMRYRTTKDIILPFRVIPLVREVGRTKLEVKVVIKSNFKPSLLAQKIEVRIPTPLNTSGVQVICMKGKAKYKASENAIVWKIKRMAGMKESQISAEIELLPTNDKKKWARPPISMNFEVPFAPSGLKVRYLKVFEPKLNYSDHDVIKWVRYIGRSGIYETRC
